In patent US20050085420A1, “Method of modulating apoptosis and compositions thereof” (priority 2003, published 2005):

Molecular target: T1, N-terminal HA-tagged VDAC2 (murine, UniProt Q60930 1-295)
T1 construct: also called HA-VDAC2; hemagglutinin (HA)-tagged version of VDAC2; not shown: N-terminal HA tag
T1 sequence (looked up): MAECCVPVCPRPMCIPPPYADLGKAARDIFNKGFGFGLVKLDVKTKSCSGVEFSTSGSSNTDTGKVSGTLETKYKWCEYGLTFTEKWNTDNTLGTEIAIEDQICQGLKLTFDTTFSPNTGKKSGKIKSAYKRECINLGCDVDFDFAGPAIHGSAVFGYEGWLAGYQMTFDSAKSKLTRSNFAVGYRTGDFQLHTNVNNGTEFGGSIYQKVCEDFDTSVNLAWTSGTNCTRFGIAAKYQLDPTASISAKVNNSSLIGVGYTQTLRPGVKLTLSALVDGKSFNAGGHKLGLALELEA
Assay: anti-HA immunoprecipitation in 1% CHAPS, anti-BID immunoblot
Method: The activated form of BID, p15 tBID, was first examined in cells expressing only VDAC2 and not the other isoforms, VDAC1 or VDAC3. Mitochondria isolated from vdac1 -/- , vdac3 -/- mouse fibroblasts with or without retroviral transduction of N-terminal HA-tagged VDAC2 were incubated with in vitro transcribed, translated wild-type or mutant tBID (mIII.4, G94E) protein at 30° C. for 30 min, followed by anti-HA immunoprecipitation in 1% CHAPS buffer.

B1: mutant tBID mIII.4 (G94E) (other, UniProt P70444 60-195, looked up)
chain: GSQASRSFNQGRIEPDSESQEEIIHNIARHLAQIEDEMDHNIQPTLVRQLAAQFMNGSLSEEDKRNCLAKALDEVKTAFPRDMENDKAMLIMTMLLAKKVASHAPSLLRDVFHTTVNFINQNLFSYVRNLVRNEMD
notes: domain: p15 tBID; also called m111.4 mutant; m l 11.4
B1: no binding.
